Reference: paper PMC8276117

Molecular target: eHSP90α-His6 (secreted from HEK293) (human) (UniProt P07900)
Test: native gel or EMSA

With “eHSP90α-His6 (secreted from HEK293) (from UniProt P07900 1-732) (natural protein)” the stoichiometry N was 2.
